Measurements from publication PMC5595413.
Values joined by “and” are separate entries in the source; they are usually repeats but may differ in a detail not shown here. Equal entries are not always repeated.

Columns and labels:
[1] = molecular target: C41S SqrR (R. capsulatus); test: SEC + cross-linking
[2] = molecular target: C107S SqrR (R. capsulatus); test: SEC + cross-linking

Row | Substance | stoichiometry N [1] | stoichiometry N [2]
1 | C41S SqrR (natural protein) | 2 | –
2 | C107S SqrR (natural protein) | – | 2 and 4
